Numbering of substitutions follows the chain as printed. One block for each binder: values may come before it.
Target: T1, human TNFR2 (Novoprotein, Cat #C830) (human, UniProt P20333 23-257, limits assumed)
T1 construct: construct not described; also called human TNFR2 protein
T1 sequence (looked up): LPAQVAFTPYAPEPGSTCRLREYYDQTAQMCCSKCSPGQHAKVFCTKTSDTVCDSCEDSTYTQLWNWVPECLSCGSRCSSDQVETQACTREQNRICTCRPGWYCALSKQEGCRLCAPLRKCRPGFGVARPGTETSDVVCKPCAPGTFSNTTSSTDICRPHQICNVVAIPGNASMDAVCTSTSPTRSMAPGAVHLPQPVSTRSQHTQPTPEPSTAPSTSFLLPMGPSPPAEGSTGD
Test: competition ELISA, competitor human TNFα-Biotin; IC50 against 219-WT
Experimental: 1 μg/ml human TNFR2 (Novoprotein, Cat #C830) was pre-coated with 100 μl/well […] in an ELISA plate. All the test TNFR2 antibodies were subjected to 2.5-fold gradient dilution from the highest concentration of 30 μg/ml; the diluted antibodies were mixed with 15 ng/ml human TNFα-Biotin (Acro Biosystem, Cat #TNA-H82E3) in equal volume, respectively; the resulting mixture was added to the ELISA plate at 100 μl/well, and incubated with shaking at room temperature for 2.0 hours. The plate was washed, and then a Streptavidin-HRP working solution (diluted at 1:10000) was added at 100 μl/well, and the mixture was incubated with shaking at room temperature for 40 minutes. The plate was washed again, and then the substrate TMB of HRP was added to develop colour. A stop solution was added to stop the reaction, and then a microplate reader (MD 13) was used to read the absorbance value. The inhibitory curve of an antibody was drawn with antibody concentration as the abscissa and corresponding OD value as the ordinate, and fitted with four parameters (GraphPad Prism9) to calculate the IC50 value. The smaller the IC50 value, the stronger the ability of an antibody to inhibit the binding of human TNFα to human TNFR2. The blocking effect of a humanized antibody was normalized to its corresponding human-murine chimeric antibody WT. The higher the percentage value, the better the inhibitory effect of the humanized antibody.

% Relative activity (WT antibody/test antibody): 120%
B1: 219-Hu2 (antibody, V domains shown)
VH: QVQLVQSGAEVKKPGSSVKVSCKASGYSFTNYWMNWVRQAPGQGLEWMGMIHPSDTETRLNQNFKDKATITADKSTSTAYMELSSLRSEDTAVYYCARGEGLGAARSVSMDYWGQGTLVTVSS
VL: DIQMTQSPSSLSASVGDRVTITCRASQDISNYLNWYQQKPDGTVKLLIYYTAILHSGVPSRFSGSGSGTDYSLTISSLQPEDFATYFCQQGNTLPWTFGQGTKVEIK
notes: also called VH4 + VL5

% Relative activity (WT antibody/test antibody): 136%
B2: 219-Hu5 (antibody, V domains shown)
VH: B1 VH with K67R, A68V, A72V
VL: B1 VL
notes: also called VH7 + VL5

% Relative activity (WT antibody/test antibody): 126%
B3: 219-Hu4 (antibody, V domains shown)
VH: B1 VH with R38K, M48I, I70L, A72V
VL: B1 VL
notes: also called VH6 + VL5
